This test has as its target 1-Aminocyclopropane-1-carboxylic acid (ACC) oxidase ACCO1 from apple (Malus domestica), His-Tag fusion protein (apple (Malus domestica)). Kind of test: SEC; Sephadex G-200 column chromatography; activity of the monomer, dimer and tetramer forms; data not shown. On the technique in general: Size exclusion chromatography separates by hydrodynamic size, large species first.

Several values for one entry are separate records, joined by “and”; a condition that tells them apart may be missing. Identical values can stand only once.

With “1-Aminocyclopropane-1-carboxylic acid (ACC) oxidase ACCO1 from apple (Malus domestica), His-Tag fusion protein (enzyme)”, the stoichiometry N is 2 and 4.

The term stoichiometry N denotes the number of molecules, sites or subunits per partner or assembly.

The values above are taken from PMC3828642, “1-Aminocyclopropane-1-carboxylic acid oxidase reaction mechanism and putative post-translational activities of the ACCO protein” (AoB Plants, 2013).
